The text below walks through data of the supplement of paper PMC9116672.

± gives the standard deviation of the averaged measurements or the uncertainty stated by the source.

Data set [1] can be described thus: duplex formation enthalpy ΔH (Van't Hoff fit of HRM Tm); higher = less exothermic duplex formation. As to conditions: temperature for dG: 50 °C, NaCl: 500 mM (unadjusted). How it is done: (§1)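 Duplex of the listed DNA strand with its complement, in 1x NNE buffer (500 mM NaCl, pH 7.0) with 1x EvaGreen. ΔH and ΔS come from a Van't Hoff linear fit of 1/Tm against ln(CT/4) over 1-20 uM, using HRM Tm values.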

Data set [2] can be described thus: duplex formation free energy ΔG50 (Van't Hoff fit of HRM Tm); higher = less stable duplex. As to conditions: temperature for dG: 50 °C, NaCl: 500 mM (unadjusted). The method, then:
as §1

The nature of data set [3]: duplex formation entropy ΔS (Van't Hoff fit of HRM Tm); higher = smaller entropy loss on duplex formation. As to conditions: temperature for dG: 50 °C, NaCl: 500 mM (unadjusted). How it is done: as §1
Data set [4] in a line: duplex melting temperature (HRM, EvaGreen); higher = more stable duplex. The method, then: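 Listed DNA strand annealed 1:1 with its complementary strand (95 °C 5 min, 0.1 °C/s to 20 °C). Melted in 1x NNE buffer (500 mM NaCl, 10 mM Na2HPO4, 1 mM EDTA, pH 7.0) with 1x EvaGreen on a LightCycler96 (37 to 97 °C, 0.1 °C/s). Tm is the peak of -dF/dT at the stated total duplex concentration; 4 replicates are averaged. PS oligos are non-stereospecific (Rp/Sp mixtures).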

Where [5] appears, read: backbone: PO-PO (both strands phosphodiester DNA).
Where [6] appears, read: backbone: PS-PO (listed strand fully phosphorothioate, complement phosphodiester).
Where [7] appears, read: backbone: PS-PS (both strands fully phosphorothioate).
The mark [8] stands for this setting: duplex concentration 1 µM, backbone: PS-PO (listed strand fully phosphorothioate, complement phosphodiester).
Where [9] appears, read: duplex concentration 1 µM, backbone: PS-PS (both strands fully phosphorothioate).
Setting [10] is: duplex concentration 2.5 µM, backbone: PO-PO (both strands phosphodiester DNA).
Where [11] appears, read: duplex concentration 2.5 µM, backbone: PS-PO (listed strand fully phosphorothioate, complement phosphodiester).
[12] abbreviates: duplex concentration 2.5 µM, backbone: PS-PS (both strands fully phosphorothioate).
Where [13] appears, read: duplex concentration 5 µM, backbone: PO-PO (both strands phosphodiester DNA).
[14] abbreviates: duplex concentration 5 µM, backbone: PS-PO (listed strand fully phosphorothioate, complement phosphodiester).
[15] abbreviates: duplex concentration 5 µM, backbone: PS-PS (both strands fully phosphorothioate).
Setting [16] is: duplex concentration 7.5 µM, backbone: PO-PO (both strands phosphodiester DNA).
Setting [17] is: duplex concentration 7.5 µM, backbone: PS-PO (listed strand fully phosphorothioate, complement phosphodiester).
[18] abbreviates: duplex concentration 7.5 µM, backbone: PS-PS (both strands fully phosphorothioate).
[19] abbreviates: duplex concentration 10 µM, backbone: PO-PO (both strands phosphodiester DNA).
Setting [20] is: duplex concentration 10 µM, backbone: PS-PO (listed strand fully phosphorothioate, complement phosphodiester).
The mark [21] stands for this setting: duplex concentration 10 µM, backbone: PS-PS (both strands fully phosphorothioate).
[22] abbreviates: duplex concentration 15 µM, backbone: PO-PO (both strands phosphodiester DNA).
Setting [23] is: duplex concentration 15 µM, backbone: PS-PO (listed strand fully phosphorothioate, complement phosphodiester).
Where [24] appears, read: duplex concentration 15 µM, backbone: PS-PS (both strands fully phosphorothioate).
Setting [25] is: duplex concentration 20 µM, backbone: PO-PO (both strands phosphodiester DNA).
The mark [26] stands for this setting: duplex concentration 20 µM, backbone: PS-PO (listed strand fully phosphorothioate, complement phosphodiester).
Setting [27] is: duplex concentration 20 µM, backbone: PS-PS (both strands fully phosphorothioate).

As for TCTCGCGGTTCCATTA, the “duplex formation enthalpy ΔH” value in data set [1] (setting [5]) was -257 ± 10 kJ/mol; in data set [1] (setting [6]), -269 ± 7.11 kJ/mol; in data set [1] (setting [7]), -248 ± 12.1 kJ/mol. Further, the “duplex formation free energy ΔG50” value in data set [2] (setting [5]) was -50.8 ± 0.586 kJ/mol; in data set [2] (setting [6]), -45.97 ± 0.293 kJ/mol; in data set [2] (setting [7]), -41.65 ± 0.31 kJ/mol. Further, the results for the “duplex formation entropy ΔS” value in data set [3] (setting [5]), in data set [3] (setting [6]) and in data set [3] (setting [7]) were -152 ± 7 cal/mol/K, -165 ± 5.2 cal/mol/K and -153 ± 8.8 cal/mol/K, respectively. Further, the duplex melting temperature in data set [4] (duplex concentration 1 µM, backbone: PO-PO (both strands phosphodiester DNA)) turned out to be 62.7 ± 1.2 °C; in data set [4] (setting [8]), 56.3 °C; in data set [4] (setting [9]), 50.4 ± 1.6 °C; in data set [4] (setting [10]), 67.08 ± 0.63 °C; in data set [4] (setting [11]), 59.34 ± 0.38 °C; in data set [4] (setting [12]), 54.64 ± 0.23 °C. In addition, the duplex melting temperature turned out to be 68.7 ± 0.86 °C in data set [4] (setting [13]); 61.95 ± 0.17 °C in data set [4] (setting [14]); 57.28 ± 0.084 °C in data set [4] (setting [15]); 70.24 ± 0.58 °C in data set [4] (setting [16]); 63.21 ± 0.18 °C in data set [4] (setting [17]); 58.48 ± 0.13 °C in data set [4] (setting [18]). In addition, the duplex melting temperature in data set [4] (setting [19]) worked out at 71.59 ± 0.45 °C; in data set [4] (setting [20]), 64.2 ± 0.12 °C; in data set [4] (setting [21]), 59.42 ± 0.15 °C; in data set [4] (setting [22]) it was 73.26 ± 0.38 °C; in data set [4] (setting [23]), 65.517 ± 0.063 °C; in data set [4] (setting [24]), 60.81 ± 0.1 °C. Besides, the duplex melting temperature in data set [4] (setting [25]) stood at 74.35 ± 0.18 °C; in data set [4] (setting [26]), 66.61 ± 0.15 °C; in data set [4] (setting [27]) it was 61.53 ± 0.15 °C.
Consider CTACCAGCGGCGCCGTT, for which the “duplex formation enthalpy ΔH” value was -388 ± 18.8 kJ/mol in data set [1] (setting [5]), -277 ± 9.62 kJ/mol in data set [1] (setting [6]) and -303 ± 7.53 kJ/mol in data set [1] (setting [7]). The “duplex formation free energy ΔG50” value in data set [2] (setting [5]) is -70 ± 1.67 kJ/mol; in data set [2] (setting [6]), -55.8 ± 0.669 kJ/mol; in data set [2] (setting [7]) it was -53.1 ± 0.418 kJ/mol. The “duplex formation entropy ΔS” value in data set [3] (setting [5]) was -235 ± 13 cal/mol/K; in data set [3] (setting [6]), -163 ± 6.5 cal/mol/K; in data set [3] (setting [7]) it was -185 ± 5.4 cal/mol/K. The duplex melting temperature in data set [4] (setting [8]) is 68.2 ± 0.97 °C; in data set [4] (setting [9]), 63.52 ± 0.26 °C; in data set [4] (setting [10]), 78.66 ± 0.28 °C; in data set [4] (setting [11]), 71.69 ± 0.5 °C; in data set [4] (setting [12]), 66.46 ± 0.23 °C; in data set [4] (setting [13]), 80.52 ± 0.35 °C. Besides, the duplex melting temperature in data set [4] (setting [14]) stood at 74.62 ± 0.28 °C; in data set [4] (setting [15]), 68.88 ± 0.19 °C; in data set [4] (setting [16]), 81.81 ± 0.23 °C; in data set [4] (setting [17]) it was 75.97 ± 0.31 °C; in data set [4] (setting [18]) it was 70.02 ± 0.24 °C; in data set [4] (setting [19]) it was 82.55 ± 0.18 °C. The duplex melting temperature turned out to be 76.92 ± 0.17 °C in data set [4] (setting [20]); 71 ± 0.18 °C in data set [4] (setting [21]); 83.52 ± 0.2 °C in data set [4] (setting [22]); 78.15 ± 0.26 °C in data set [4] (setting [23]); 72.23 ± 0.12 °C in data set [4] (setting [24]); 84.24 ± 0.2 °C in data set [4] (setting [25]). Besides, the duplex melting temperature in data set [4] (setting [26]) came to 79.05 ± 0.47 °C; in data set [4] (setting [27]), 73.06 ± 0.32 °C.
For GGACGGCGTT, the duplex melting temperature stood at 39.971 ± 0.0066 °C in data set [4] (setting [9]); 43 ± 0.68 °C in data set [4] (setting [12]); 47.59 ± 0.14 °C in data set [4] (setting [15]); 50.3 ± 1.2 °C in data set [4] (setting [18]); 63.65 ± 0.51 °C in data set [4] (setting [19]); 50.8 ± 1.5 °C in data set [4] (setting [21]). The duplex melting temperature in data set [4] (setting [22]) amounted to 64.94 ± 0.51 °C; in data set [4] (setting [23]) it was 61.1 ± 0.49 °C; in data set [4] (setting [24]) it was 53.7 ± 0.47 °C; in data set [4] (setting [25]), 65.94 ± 0.2 °C; in data set [4] (setting [26]), 62.78 ± 0.33 °C; in data set [4] (setting [27]), 53.7 °C.
